In general, IC50 refers to the concentration at which inhibition is half-maximal. The term koff denotes a measure of how fast the partners let go of each other.

Six molecules from patent publication US20200040103A1 can be followed below.

The chains are these.
B1: 9H3 (antibody, V domains shown)
VH: QSVKESEGGLFKPTDTLTLTCTVSGFSLSGYGVSWVRQAPGKGLEYIGFIGSGGSAYYASWAKSRSTITRNTNLNTVTLKMTRLTAADTATYFCARDNVGGDMSLDIWGPGTLVTVSS
VL: DIVMTQTPASVSEPVGGTVTIKCQASQNINNYLSWYQQKPGQPPKQLIYAASTLASGVPSRFKGSGSGTQFTLTISDLECADAATYYCHQDYTSNNVDNTFGGGTEVVVK
B2: 10C8 (antibody, V domains shown)
VH: B1 VH with T16N, G30S, K42N, S55F, R83S, N98D, D102G, M103R, L113V
VL: NIVMTQTPASVEVAMGGTVIIKCQASQSISTYLSWYQQKPGQPPKLLIYSASTLASGVSSRFEGSGSGTQFTLTISGVQCADAATYYCHQDYTSNNVDNTFGGGTEVVVK
B3: 9B6 (antibody, V domains shown)
VH: B1 VH with T16N, G30N, S34T, K42N, R83S, N98D, D102G, M103K
VL: NIVMTQTPASVEVAVGGTVVIKCQASQNIGDYLSWYQQKPGQRPKLLIYSASTLASGVPSRFKGSGSGTQFTLTISDLECADAATYYCHQDYTSNDVENTFGGGTEVVVK
B4: 8B7 (antibody, V domains shown)
VH: B1 VH with T16N, G30N, S34T, K42N, G53S, R83S, N98D, D102G, M103K
VL: B3 VL with V20T, N28S, D31S, R43P, S50D, T53N, T74S, D96N, E98D, V109I
B5: 9F2 (antibody, V domains shown)
VH: B1 VH with T16N, G30S, K42N, A56P, R83S, N98D, D102G, M103K
VL: B3 VL with V20I, N28S, G30S, D31N, Q37H, P40S, K45R, D96S, E98D
B6: 10H3 (antibody, V domains shown)
VH: QSVKESEGGLIKPTDTLTLTCTVSGFSLSTFAINWVRQAPGNGLEWIGAIGRGGSAYYASWAKSRSTITKNTNLNTVTLKMTRPTAADTATYFCARENAGSGWGELDIWGPGTLVTVSS
VL: AYEMTQTPASVEVAVGGTVTINCQASESISSDLAWYQQKPGQRPKLLIYAASTLASGVPSRFKGSGSGTEFTLSISGVQCADAATYYCQQGYTWNNVDNVFGGGTEVVVK

Positions count from the first letter of the chain named.

The target in the first experiment is recombinant human KLK5 (human) (UniProt Q9Y337). Put plainly: pro-KLK7 LC/MS assay, 5 nM KLK5.
Chain of recombinant human KLK5 (human) (Q9Y337 67-293): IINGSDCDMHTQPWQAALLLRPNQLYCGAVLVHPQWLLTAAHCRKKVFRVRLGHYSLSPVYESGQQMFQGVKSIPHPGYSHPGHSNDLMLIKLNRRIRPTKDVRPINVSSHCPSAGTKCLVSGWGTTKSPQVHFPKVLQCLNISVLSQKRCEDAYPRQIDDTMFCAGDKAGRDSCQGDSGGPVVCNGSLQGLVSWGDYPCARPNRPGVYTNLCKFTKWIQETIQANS
For B1, the IC50 is 1.05 nM.
On the same count and under the same terms, the result for B2 reads 1.8 nM; that for B3, 1.42 nM.
For B4, the IC50 came to 1.29 nM.
Regarding B5, the concentration for half-maximal inhibition (IC50) amounted to 1.26 nM.
For B6, the IC50 stood at 0.97 nM.

The target is the same in the next experiment. In words: pro-KLK7 coupled assay, 5 nM KLK5.
As for B1, the IC50 came to 1.05 nM.
B2: the IC50 came out at 1.16 nM.
Same read-out and setting: the figure for B3 is 0.95 nM.
The same measure, in the same setting: the result for B4 reads 0.92 nM; that for B5, 0.93 nM.
Turning to B6, the half-inhibitory concentration (IC50) was determined as 1.17 nM.

Another experiment shares this target. Put plainly: pro-KLK1 LC/MS assay, 0.5 nM KLK5.
In the case of B1, the IC50 was 0.09 nM.
Still for that read-out and setting: the figure for B2 is 0.14 nM.
Still for that read-out and setting: the figure for B3 is 0.12 nM; for B4 it is 0.09 nM.
The same measure, in the same setting: the result for B5 reads 0.14 nM.
As for B6, the IC50 was determined as 0.08 nM.

Another experiment shares this target. Put plainly: Kiapp assay curve, 0.125 nM KLK5, Z-VPR-pNA.
B1: the IC50 (read off the curve) amounted to 0.07 nM.
Same read-out and setting: the result for B2 reads 0.2 nM; that for B3, 0.1 nM.
On the same count and under the same terms, the result for B4 reads 0.2 nM; that for B5, 0.2 nM; that for B6, 0.3 nM.

The target is the same in a further experiment. Put plainly: Kiapp assay curve, 0.250 nM KLK5, Z-VPR-pNA.
On to B1, for which the IC50 (read off the curve) turned out to be 0.1 nM.
The same measure, in the same setting: the result for B2 reads 0.2 nM.
The same measure, in the same setting: the result for B3 reads 0.1 nM; that for B4, 0.2 nM; that for B5, 0.2 nM.
Same read-out and setting: the figure for B6 is 0.3 nM.

A further experiment has the same target. Put plainly: Kiapp assay curve, 0.500 nM KLK5, Z-VPR-pNA.
Consider B1, for which the IC50 (read off the curve) was determined as 0.2 nM.
With B2, the IC50 (read off the curve) was found to be 0.2 nM.
On the same count and under the same terms, the result for B3 reads 0.2 nM; that for B4, 0.2 nM.
The same measure, in the same setting: the result for B5 reads 0.3 nM; that for B6, 0.4 nM.

For another experiment the target is unchanged. Put plainly: Kiapp assay curve, 0.063 nM KLK5, Z-VPR-pNA.
Regarding B1, the IC50 (read off the curve) amounted to 0.05 nM.
In the case of B2, the IC50 (read off the curve) stood at 0.2 nM.
Still for that read-out and setting: the result for B3 reads 0.1 nM.
The same measure, in the same setting: the figure for B4 is 0.2 nM; for B5 it is 0.2 nM; for B6 it is 0.2 nM.

The target is the same in another experiment. Put plainly: pro-KLK1 coupled assay, 0.5 nM KLK5.
On to B1, for which the IC50 worked out at 0.12 nM.
The same measure, in the same setting: the result for B2 reads 0.151 nM; that for B3, 0.074 nM.
Still for that read-out and setting: the result for B4 reads 0.125 nM; that for B5, 0.137 nM; that for B6, 0.122 nM.

For another experiment the target is unchanged. In words: Kiapp, KLK5 0.5-0.0625 nM, Z-VPR-pNA.
B1: the Ki stood at 0.07 nM.
Same read-out and setting: the figure for B2 is 0.265 nM.
Consider B3, for which the Ki turned out to be 0.185 nM.
Regarding B4, the Ki was determined as 0.32 nM.
Consider B5, for which the Ki turned out to be 0.43 nM.
With B6, the Ki was found to be 0.51 nM.

The next experiment has the same target. In words: KLK5 direct activity assay, 5 nM KLK5, Boc-VPR-AMC.
Turning to B1, the IC50 (read off the curve) turned out to be 0.9 nM.
Still for that read-out and setting: the figure for B2 is 0.9 nM; for B3 it is 1 to 2 nM.
Same read-out and setting: the figure for B4 is 1 to 2 nM; for B5 it is 1 to 2 nM; for B6 it is 1 nM.

The next experiment shares this target. Put plainly: direct activity assay, 5 nM KLK5, Boc-VPR-AMC.
Turning to B1, the IC50 turned out to be 1.08 nM.
On the same count and under the same terms, the result for B2 reads 0.89 nM; that for B3, 1.17 nM; that for B4, 1.1 nM.
Take B5: the IC50 was 1.01 nM.
On the same count and under the same terms, the figure for B6 is 1.09 nM.

Another experiment has the same target. In words: pro-KLK1 coupled assay, 0.5 nM KLK5, 31.25 nM pro-KLK1, PFR-AMC.
As to B1, the IC50 (read off the curve) was 0.1 nM.
On the same count and under the same terms, the result for B2 reads 0.1 to 0.2 nM.
As for B4, the IC50 (read off the curve) worked out at 0.1 nM.
The same measure, in the same setting: the result for B5 reads 0.1 to 0.2 nM.
The same measure, in the same setting: the result for B6 reads 0.1 nM.

The next experiment shares this target. Put plainly: pro-KLK7 coupled assay, 5 nM KLK5, 125 nM pro-KLK7, suc-LLVY-AMC.
Consider B1, for which the IC50 (read off the curve) was 1 nM.
Still for that read-out and setting: the figure for B2 is 1 nM; for B3 it is 1 nM; for B4 it is 1 nM.
Regarding B5, the IC50 (read off the curve) came to 0.9 nM.
The same measure, in the same setting: the figure for B6 is 1 nM.

The next experiment has the same target. Put plainly: pro-KLK7 LC/MS assay, 5 nM KLK5, 15 nM pro-KLK7, nM.
For the molecule B1, the IC50 is 1.05 nM.
For the molecule B2, the IC50 amounted to 1.8 nM.
The same measure, in the same setting: the result for B3 reads 1.42 nM; that for B4, 1.29 nM; that for B5, 1.26 nM.
Still for that read-out and setting: the result for B6 reads 0.968 nM.

The next experiment shares this target. In words: array SPR imaging (IBIS MX96), antibody amine-coupled, human KLK5 injected 0-300 nM, 25 C.
B1: the koff was 0.000143 s⁻¹.
The same measure, in the same setting: the result for B2 reads 6.16e-05 s⁻¹; that for B3, 0.000178 s⁻¹; that for B4, 0.000547 s⁻¹.
On the same count and under the same terms, the figure for B5 is 0.000339 s⁻¹; for B6 it is 0.000589 s⁻¹.

The next experiment shares this target. In words: Kiapp as the y-intercept of the line of IC50 (nM) versus KLK5 (nM), Z-VPR-pNA.
B1: the Ki came out at 0.0697 nM.
Same read-out and setting: the figure for B2 is 0.277 nM; for B3 it is 0.165 nM; for B4 it is 0.264 nM.
Consider B5, for which the Ki amounted to 0.377 nM.
As for B6, the Ki is 0.393 nM.

The next experiment has the same target. Put plainly: pro-KLK1 LC/MS assay, 0.5 nM KLK5, 300 nM pro-KLK1; box column 2 of 3; no unit printed, nM per text.
On to B1, for which the IC50 was 0.0802 nM.
Regarding B2, the IC50 came to 0.225 nM.
The same measure, in the same setting: the result for B3 reads 0.202 nM; that for B4, 0.132 nM; that for B5, 0.137 nM.
Turning to B6, the IC50 is 0.116 nM.

A further experiment has the same target. Put plainly: pro-KLK1 LC/MS assay, 0.5 nM KLK5, 300 nM pro-KLK1; box column 3 of 3; no unit printed, nM per text.
Consider B1, for which the IC50 was 0.104 nM.
Consider B2, for which the IC50 turned out to be 0.149 nM.
The same measure, in the same setting: the figure for B3 is 0.0879 nM; for B4 it is 0.106 nM.
For B5, the IC50 is 0.18 nM.
Still for that read-out and setting: the result for B6 reads 0.13 nM.

For another experiment the target is unchanged. In words: pro-KLK1 LC/MS assay, 0.5 nM KLK5, 300 nM pro-KLK1; box column 1 of 3; no unit printed, nM per text.
B1: the IC50 stood at 0.0728 nM.
The same measure, in the same setting: the result for B2 reads 0.0587 nM; that for B3, 0.0659 nM.
Same read-out and setting: the result for B4 reads 0.0473 nM; that for B5, 0.108 nM.
The same measure, in the same setting: the result for B6 reads 0.00485 nM.
